Values quoted from earlier work, collected in PMC5874834.

Biological target: VEGF165 VEGF165 (Homo sapiens) (UniProt P15692)
Chain of UniProt P15692 (P15692 207-321, chain 1 of 2): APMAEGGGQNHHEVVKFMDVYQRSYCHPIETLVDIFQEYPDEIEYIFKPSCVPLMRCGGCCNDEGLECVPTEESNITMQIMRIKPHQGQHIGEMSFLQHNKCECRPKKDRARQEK
Chain of UniProt P15692 (P15692 346-395, chain 2 of 2): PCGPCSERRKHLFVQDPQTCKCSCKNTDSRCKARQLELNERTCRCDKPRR

Brolucizumab scFv
Kd: 1.6 pM
